In patent US10822618B2, “Method of using a transgenic mouse with alpha-one antitrypsin (ATT) deficiency to screen compounds” (University of Massachusetts, priority 2016, dated 2020):

T1: neutrophil elastase (Homo sapiens, UniProt P08246)
T1 sequence (P08246 30-267): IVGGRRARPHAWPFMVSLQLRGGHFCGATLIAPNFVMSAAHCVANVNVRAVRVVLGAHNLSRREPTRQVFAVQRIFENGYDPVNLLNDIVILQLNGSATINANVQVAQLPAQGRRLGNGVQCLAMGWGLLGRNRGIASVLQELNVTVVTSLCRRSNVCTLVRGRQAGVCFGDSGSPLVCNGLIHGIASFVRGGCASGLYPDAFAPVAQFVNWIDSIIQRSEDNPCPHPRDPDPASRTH

B1: AAT 1-1: murine α-1-antitrypsin protein corresponding to one of the Serpina1 genes (A-E) (protein, UniProt P07758 25-413, looked up)
Alpha-1-antitrypsin 1-1: EDVQETDTSQKDQSPASHEIATNLGDFAISLYRELVHQSNTSNIFFSPVSIATAFAMLSLGSKGDTHTQILEGLQFNLTQTSEADIHKSFQHLLQTLNRPDSELQLSTGNGLFVNNDLKLVEKFLEEAKNHYQAEVFSVNFAESEEAKKVINDFVEKGTQGKIAEAVKKLDQDTVFALANYILFKGKWKKPFDPENTEEAEFHVDESTTVKVPMMTLSGMLHVHHCSTLSSWVLLMDYAGNATAVFLLPDDGKMQHLEQTLSKELISKFLLNRRRRLAQIHFPRLSISGEYNLKTLMSPLGITRIFNNGADLSGITEENAPLKLSQAVHKAVLTIDETGTEAAAVTVLQMVPMSMPPILRFDHPFLFIIFEEHTQSPIFLGKVVDPTHK
B2: AAT 1-2: murine α-1-antitrypsin protein corresponding to one of the Serpina1 genes (A-E) (protein, UniProt P22599 25-413, looked up)
Alpha-1-antitrypsin 1-2: EDVQETDTSQKDQSPASHEIATNLGDFAISLYRELVHQSNTSNIFFSPVSIATAFAMLSLGSKGDTHTQILEGLQFNLTQTSEADIHKSFQHLLQTLNRPDSELQLSTGNGLFVNNDLKLVEKFLEEAKNHYQAEVFSVNFAESEEAKKVINDFVEKGTQGKIVEAVKELDQDTVFALANYILFKGKWKKPFDPENTEEAEFHVDKSTTVKVPMMMLSGMLDVHHCSILSSWVLLMDYAGNASAVFLLPEDGKMQHLEQTLNKELISKILLNRRRRLVQIHIPRLSISGDYNLKTLMSPLGITRIFNNGADLSGITEENAPLKLSKAVHKAVLTIDETGTEAAAATVFEAVPMSMPPILRFDHPFLFIIFEEHTQSPIFVGKVVDPTHK
B3: AAT 1-3: murine α-1-antitrypsin protein corresponding to one of the Serpina1 genes (A-E) (protein, UniProt Q00896 25-412, looked up)
Alpha-1-antitrypsin 1-3: EDVQETDTSQKDQSPASHEIATNLGDFAISLYRELVHQSNTSNIFFSPVSIATAFAMLSLGSKGDTHTQILEGLQFNLTQTSEADIHKSFQHLLQTLNRPDSELQLSTGNGLFVNNDLKLVEKFLEEAKNHYQAEVFSVNFAESEEAKKVINDFVEKGTQGKIVEAVKKLDQDTVFALANYILFKGKWKKPFDPENTEEAEFHVDESTTVKVPMMTLSGMLDVHHCSTLSSWVLLMDYAGNATAVFLLPDDGKMQHLEQTLSKELISKFLLNRRRRLAQIHFPRLSISGEYNLKTLMSPLGITRIFNNGADLSGITEENAPLKLSQAVHKAVLTIDETGTEAAAVTVLLAVPYSMPPILRFDHPFLFIIFEEHTQSPLFVGKVVDPTH
B4: AAT 1-4: murine α-1-antitrypsin protein corresponding to one of the Serpina1 genes (A-E) (protein, UniProt Q00897 25-413, looked up)
Alpha-1-antitrypsin 1-4: EDVQETDTSQKDQSPASHEIATNLGDFALRLYRELVHQSNTSNIFFSPVSIATAFAMLSLGSKGDTHTQILEGLQFNLTQTSEADIHKSFQHLLQTLNRPDSELQLSTGNGLFVNNDLKLVEKFLEEAKNHYQAEVFSVNFAESEEAKKVINDFVEKGTQGKIVEAVKKLDQDTVFALANYILFKGKWKQPFDPENTEEAEFHVDESTTVKVPMMTLSGMLDVHHCSMLSSWVLLMDYAGNTTAVFLLPDDGKMQHLEQTLNKELISQFLLNRRRSDAQIHIPRLSISGNYNLKTLMSPLGITRIFNNGADLSGITEENAPLKLSKAVHKAVLTIDETGTEAAAATVLQVATYSMPPIVRFDHPFLFIIFEEHTQSPIFVGKVVDPTHK

Tested on: not listed separately
Assay: Respiratory phenotype in response to intratracheal PPE
Format: in vivo, mice
Details: intratracheal dose of 0.33 IU; FIG. 7
Source text: FIG. 7. Respiratory phenotype in response to a low and high dose of PPE.

| Molecule | respiratory phenotype |
| --- | --- |
| PPE: porcine pancreatic elastase | a stronger phenotype is induced |

Target: T1, neutrophil elastase
Assay: not given
Details: murine AAT protein, C57BL/6J; cited from earlier work

| Molecule | inhibition of neutrophil elastase |
| --- | --- |
| B1 | inhibit |
| B2 | inhibit |
| B3 | do not |
| B4 | do not |

Target: pancreatic elastase (Sus scrofa, UniProt P00772)
Assay: not given
Details: murine AAT protein, C57BL/6J; cited from earlier work

Chain of pancreatic elastase (P00772 27-266): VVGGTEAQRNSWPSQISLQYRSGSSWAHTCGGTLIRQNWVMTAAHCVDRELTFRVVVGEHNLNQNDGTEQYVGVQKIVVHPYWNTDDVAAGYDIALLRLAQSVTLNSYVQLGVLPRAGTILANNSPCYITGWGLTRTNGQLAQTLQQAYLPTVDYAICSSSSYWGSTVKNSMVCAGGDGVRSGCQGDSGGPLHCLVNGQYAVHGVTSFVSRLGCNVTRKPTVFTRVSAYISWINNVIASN

| Molecule | inhibition of pancreatic elastase |
| --- | --- |
| B1 | inhibit |
| B2 | inhibit |
| B3 | do not |
| B4 | do not |
